Columns and labels:
O9 [1] = target: T1, O9; test: two-hybrid library CC0; details: mean of both orientations;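 also: natural log of median RNA to DNA barcode read ratio; higher means stronger binding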
T1 chain: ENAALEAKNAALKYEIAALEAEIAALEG

4H40-bN = target: T2, 4H40-bN; test: two-hybrid library CCNG1;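 also: natural log of median RNA to DNA barcode read ratio; higher means stronger binding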
T2 chain: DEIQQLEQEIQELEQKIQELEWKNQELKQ

4H477-bN = target: T3, 4H477-bN; test: two-hybrid library CCNG1;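 also: natural log of median RNA to DNA barcode read ratio; higher means stronger binding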
T3 chain: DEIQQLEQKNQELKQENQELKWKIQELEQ

4H741-bN = target: T4, 4H741-bN; test: two-hybrid library CCNG1;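 also: natural log of median RNA to DNA barcode read ratio; higher means stronger binding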
T4 chain: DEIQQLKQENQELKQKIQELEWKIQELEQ

4H492-bN = target: T5, 4H492-bN; test: two-hybrid library CCNG1;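 also: natural log of median RNA to DNA barcode read ratio; higher means stronger binding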
T5 chain: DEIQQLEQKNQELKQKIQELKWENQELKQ

4H754-bH = target: T6, 4H754-bH; test: two-hybrid library CCNG1;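 also: natural log of median RNA to DNA barcode read ratio; higher means stronger binding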
T6 chain: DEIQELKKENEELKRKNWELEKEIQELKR

4H348-bN = target: T7, 4H348-bN; test: two-hybrid library CCNG1
T7 chain: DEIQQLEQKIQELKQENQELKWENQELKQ

O8 = target: T8, O8; test: two-hybrid library CCNG1
T8 chain: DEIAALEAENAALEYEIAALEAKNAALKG

O9 [2] = target: T9, O9; test: two-hybrid library CCNG1
T9 chain: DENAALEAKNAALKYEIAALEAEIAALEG

P9 = target: T10, P9; test: two-hybrid library CC1; details: mean of both orientations
T10 chain: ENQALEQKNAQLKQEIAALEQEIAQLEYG

P8 = target: T11, P8; test: two-hybrid library CC1; details: mean of both orientations
T11 chain: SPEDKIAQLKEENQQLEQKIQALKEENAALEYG

P8mS = target: T12, P8mS; test: two-hybrid library CC1; details: mean of both orientations
T12 chain: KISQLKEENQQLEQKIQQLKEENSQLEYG

P7 = target: T13, P7; test: two-hybrid library CC1
T13 chain: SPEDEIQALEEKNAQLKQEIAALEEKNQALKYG

P7mS = target: T14, P7mS; test: two-hybrid library CC1; details: mean of both orientations
T14 chain: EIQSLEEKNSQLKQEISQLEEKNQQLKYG

For ENAALEAKNAALKYEIAALEAEIAALEG [O9], the interaction score (O9 [1]) was -2.72.

DEIQQLEQKIQELKQENQELKWENQELKQ [4H348-bN] gave an interaction score (4H40-bN) of -1, an interaction score (4H477-bN) of -1.82 and an interaction score (4H741-bN) of -0.495. For the same binder, the interaction score (4H492-bN) was 0.214, the interaction score (4H754-bH) was -0.689 and the interaction score (4H348-bN) was -1.05.

DEIAALEAENAALEYEIAALEAKNAALKG [O8] was tested, and the interaction score (O8) was -2.07 and the interaction score (O9 [2]) was -1.9.

For SPEDEIQALEEKNAQLKQEIAALEEKNQALKYG [P7], the interaction score (P9) was -2.07, the interaction score (P8) was 0.391 and the interaction score (P8mS) was 0.223. The interaction score (P7) was -2.29 and the interaction score (P7mS) was -2.52.

From PMC10397247
